Test [1] addresses T1, mouse EphA4 extracellular region-SEAP-His protein (mouse). Put plainly: competition ELISA, mouse ligands. Here is the method:
Antibody A obtained in Example 1 was evaluated for its inhibitory activity against the binding between mouse EphA4 and its mouse ligand according to the following steps. Each well of a 96-well plate (Nunc) was coated with an anti-alkaline phosphatase antibody (Thermo Fisher Scientific). After incubation overnight at 4° C., each well was blocked with 1% BlockAce (DS Pharma Biomedical) at room temperature for 1 hour. After washing with 0.05% Tween 20/PBS (Thermo Fisher Scientific) three times, the mouse EphA4 extracellular region-SEAP-His protein obtained by the method of Example 1 was added (final concentration: 10 nM) to each well and incubated at room temperature for 1 hour. After washing three times, ligands and serially diluted antibody A (0, 0.001, 0.003, 0.01, 0.03, 0.1, 0.3, 1,3, 10, 30, 100, 300, and 1000 nM) or a known EphA4 inhibitor KYL peptide ([…], 0, 0.003, 0.01, 0.03, 0.1, 0.3, 1, 3, 10, 30, and 100 μM, its synthesis was outsourced to Hokkaido System Science) or compound 1 (0, 0.03, 0.1, 0.3, 1,3, 10, 30, 100, 300, and 1000 μM, Formula 1, Matrix Scientific) were added to each well. The ligands used were mouse Ephrin A1-Fc chimera (R&D Systems, final concentration: 20 nM) and mouse Ephrin B2-Fc chimera (R&D Systems, final concentration: 0.6 nM). […] The absorbance at 450 nm was read using a microplate reader (Molecular Devices).

Test [2] concerns the target T1, mouse EphA4 extracellular …. Put plainly: competition ELISA, competitor biotinylated mouse Ephrin B2-Fc; first value printed. Here is the method: Antibody A-Fab and antibody A-F(ab′)₂ obtained in Example 5 were evaluated for their inhibitory activity against the binding between EphA4 and its ligand according to the following steps. Each well of a 96-well plate (Nunc) was coated with an anti-alkaline phosphatase antibody (Thermo Fisher Scientific). After incubation overnight at 4° C., each well was blocked with 1% BlockAce (DS Pharma Biomedical) at room temperature for 1 hour. After washing with 0.05% Tween 20/PBS (Thermo Fisher Scientific) three times, the mouse EphA4 extracellular region-SEAP-His protein obtained by the method of Example 1 was added (final concentration: 10 nM) to each well and incubated at room temperature for 1 hour. After washing three times, a ligand and serially diluted antibody A (0, 0.003, 0.01, 0.03, 0.1, 0.3, 1, 3, 10, 30, 100, 300, 1000, and 3000 nM), antibody A-Fab (0, 0.003, 0.01, 0.03, 0.1, 0.3, 1, 3, 10, 30, 100, 300, 1000, and 3000 nM), antibody A-F(ab′)₂ (0, 0.003, 0.01, 0.03, 0.1, 0.3, 1, 3, 10, 30, 100, 300, 1000, and 3000 nM), or the EphA4 inhibitor KYL peptide ([…], 0, 0.0003, 0.001, 0.003, 0.01, 0.03, 0.1, 0.3, 1, 3, 10, 30, 100, 300, 1000, and 3000 μM, its synthesis was outsourced to Toray Research Center) were added to each well. […] The absorbance at 450 nm was read using a microplate reader (Molecular Devices or PerkinElmer). […]
A general note: ELISA stands for enzyme-linked immunosorbent assay.

The target in test [3] is T2, human EphA4 extracellular region-SEAP-His protein (human, UniProt P54764 20-547).
T2 construct: also called hEphA4-SEAP-His
Put plainly: SPR (Biacore A100), antibody A captured on a rat anti-mouse IgG1 CM5 chip, human EphA4 extracellular region-SEAP-His as analyte at 0.8-50 nM, 1:1 fit. As to the method:
The binding affinity of antibody A obtained in Example 1 for mouse and human EphA4 was determined by surface plasmon resonance (SPR) using Biacore A100 (GE Healthcare). First, a rat anti-mouse IgG₁ antibody produced with a conventional procedure by immunizing rat with a mouse IgG₁ antibody was immobilized on sensor chip CM5. The immobilization of the rat anti-mouse IgG1 antibody on sensor chip CM5 was performed by the amine coupling method using N-hydroxysuccinimide (NHS) and N-ethyl-N′-(3-dimethylaminopropyl)carbodiimide hydrochloride (EDC). Ethanolamine was used in blocking (the sensor chip and the reagents for immobilization were all manufactured by GE Healthcare). The antibody was diluted with a buffer solution for immobilization (10 mM sodium acetate, pH 4.5) into 1 to 2 μg/mL and immobilized on the sensor chip according to the protocol attached to Biacore A100. Antibody A was diluted with a running buffer solution HBS-EP (GE Healthcare, BR-1001-88), injected onto a flow cell for 120 seconds, and captured (amount of the antibody captured: approximately 70 to 100 RU). Subsequently, mouse or human EphA4 extracellular region-SEAP-His serially diluted in the range of 50, 25, 12.5, 6.3, 3.1, 1.6, 0.8, and 0 nM using HBS-EP was added to the sensor chip for 120 seconds. […]
A general note: Surface plasmon resonance follows binding to a sensor surface in real time, without labels.

Experimental findings from patent US20190077860A1 (EISAI R AND D MANAGEMENT, published 2019) are described below.

As a reminder, the IC50 is the concentration that gives 50% inhibition. The term koff denotes a measure of how fast the partners let go of each other. Read a low koff as a long-lived complex. A word on the kon: it is the second-order rate constant of association.

T1 sequence (chain, as listed by the source limits assumed): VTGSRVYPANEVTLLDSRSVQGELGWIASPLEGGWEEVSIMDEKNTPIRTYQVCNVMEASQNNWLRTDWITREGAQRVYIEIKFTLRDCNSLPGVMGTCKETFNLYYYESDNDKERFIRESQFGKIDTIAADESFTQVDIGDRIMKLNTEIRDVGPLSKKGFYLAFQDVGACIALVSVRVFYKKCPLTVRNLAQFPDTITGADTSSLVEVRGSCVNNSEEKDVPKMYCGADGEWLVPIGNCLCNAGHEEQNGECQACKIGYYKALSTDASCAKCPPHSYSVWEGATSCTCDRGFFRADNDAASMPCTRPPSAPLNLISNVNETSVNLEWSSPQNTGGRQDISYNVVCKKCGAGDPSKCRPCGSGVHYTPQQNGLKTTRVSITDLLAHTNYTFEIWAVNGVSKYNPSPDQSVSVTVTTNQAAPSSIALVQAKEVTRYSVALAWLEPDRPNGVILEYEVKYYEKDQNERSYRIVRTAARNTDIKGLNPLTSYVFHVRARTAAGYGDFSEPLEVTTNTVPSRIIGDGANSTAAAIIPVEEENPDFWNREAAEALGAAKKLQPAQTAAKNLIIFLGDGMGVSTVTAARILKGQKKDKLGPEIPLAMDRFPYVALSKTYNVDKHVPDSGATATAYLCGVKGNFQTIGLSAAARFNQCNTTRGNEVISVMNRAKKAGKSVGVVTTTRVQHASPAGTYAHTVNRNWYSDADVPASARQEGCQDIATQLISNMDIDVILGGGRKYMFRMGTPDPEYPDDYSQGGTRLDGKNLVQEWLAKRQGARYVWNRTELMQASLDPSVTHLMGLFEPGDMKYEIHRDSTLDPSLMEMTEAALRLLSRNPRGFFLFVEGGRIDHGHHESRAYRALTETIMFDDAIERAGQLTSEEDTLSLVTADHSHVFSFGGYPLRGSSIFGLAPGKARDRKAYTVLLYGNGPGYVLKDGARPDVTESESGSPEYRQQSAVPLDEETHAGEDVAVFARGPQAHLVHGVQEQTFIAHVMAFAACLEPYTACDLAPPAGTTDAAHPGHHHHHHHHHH
T2 sequence (P54764 20-547): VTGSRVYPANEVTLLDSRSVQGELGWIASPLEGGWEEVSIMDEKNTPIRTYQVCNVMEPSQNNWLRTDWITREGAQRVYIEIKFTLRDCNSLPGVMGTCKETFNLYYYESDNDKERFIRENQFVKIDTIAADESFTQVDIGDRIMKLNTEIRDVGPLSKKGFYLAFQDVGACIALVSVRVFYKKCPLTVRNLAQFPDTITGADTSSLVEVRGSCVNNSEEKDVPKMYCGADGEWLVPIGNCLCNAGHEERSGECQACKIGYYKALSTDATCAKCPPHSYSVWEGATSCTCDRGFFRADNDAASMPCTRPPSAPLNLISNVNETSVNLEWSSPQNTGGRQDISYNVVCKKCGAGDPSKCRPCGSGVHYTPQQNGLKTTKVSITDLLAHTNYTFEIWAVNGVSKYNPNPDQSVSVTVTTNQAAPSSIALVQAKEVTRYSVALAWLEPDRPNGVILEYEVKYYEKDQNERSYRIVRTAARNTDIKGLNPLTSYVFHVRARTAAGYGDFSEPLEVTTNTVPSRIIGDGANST

B1: antibody A (antibody, mouse IgG1, kappa, V domains shown)
VH: QIQLVQSGPELKKPGETVKISCKASGYTFTDYSMHWVKQAPGKGLKWMGWINTETGEPTYADDFKGRFAFSLETSASTAYLQINNLKNEDTATYFCARIPLYYYGSRYWYFDVWGAGTTVTVSS
VL: DIQMTQSPASLSVSVGETVTITCRASENIYRNLAWYQQKQGKSPQLLVYAATNLADGVPSRFSGSGSGTQYSLKINSLQSEDFGSYYCQHFWGTPWTFGGGTKLEIKR
notes: mouse IgG1 heavy chain, kappa light chain; purified from hybridoma supernatant; also called anti-EphA4 monoclonal antibody; antibody A-IgG
For B1, the “fold activity against KYL peptide” value in test [1] is at least 1000 fold. The same molecule returned an IC50 in test [2] of 2.6 nM. In test [3], this molecule had an off-rate (koff) of 0.000152 s⁻¹ and an association rate constant (kon) of 210000 M⁻¹ s⁻¹.
